From PMC9034101 come the findings set out here.

The target of the assay is Cy5 N-terminal-labeled WWP2 (human) (UniProt O00308). The assay is described as follows: MST; 10 nM N-terminal Cy5-labeled WWP2, NDP52 (up to 48 uM) or OPTN (up to 60 uM) in two-fold serial dilution; 25 mM Hepes pH 7.8, 250 mM NaCl, 1 mM TCEP, 0.5 mg/ml BSA, 0.05% Tween-20; room temperature; apparent KD, quadratic model.

B1: NDP52 (natural protein)
chain: MEETIKDPPTSAVLLDHCHFSQVIFNSVEKFYIPGGDVTCHYTFTQHFIPRRKDWIGIFRVGWKTTREYYTFMWVTLPIDLNNKSAKQQEVQFKAYYLPKDDEYYQFCYVDEDGVVRGASIPFQFRPENEEDILVVTTQGEVEEIEQHNKELCKENQELKDSCISLQKQNSDMQAELQKKQEELETLQSINKKLELKVKEQKDYWETELLQLKEQNQKMSSENEKMGIRVDQLQAQLSTQEKEMEKLVQGDQDKTEQLEQLKKENDHLFLSLTEQRKDQKKLEQTVEQMKQNETTAMKKQQELMDENFDLSKRLSENEIICNALQRQKERLEGENDLLKRENSRLLSYMGLDFNSLPYQVPTSDEGGARQNPGLAYGNPYSGIQESSSPSPLSIKKCPICKADDICDHTLEQQQMQPLCFNCPICDKIFPATEKQIFEDHVFCHSL
With B1, the Kd was 19 µM.
